In patent publication US20220064276A1 (SCHOLAR ROCK, published 2022):
Changes are numbered by the printed parent chain. Several values for one entry are separate records, joined by “and”; a condition that tells them apart may be missing. Equal entries are not always repeated.

B1: SR-AB31 (antibody, IgG1, V domains shown)
VH: QVQLVESGGGVVQPGRSLRLSCAASGFTFRSYVMHWVRQAPGKGLEWVAVISHEGSLKYYADSVKGRFTISRDNSKNTLYLQMNSLRAEDTAVYYCAVPRIAARRGGFGYWGQGTLVTVSS
VL: NFMLTQPHSVSESPGKTVTISCTRSSGNIDNNYVQWYQQRPGSSPTTVIYEDNQRPSGVPDRFSGSIDSSSNSASLTISGLKTEDEADYYCQSYDFNNQGVVFGGGTKLTVL
notes: Cycle 3, lineage SR-AB22
B2: SR-AB45 (antibody, IgG1, V domains shown)
VH: B1 VH with V98R
VL: B1 VL with N28A, N31D, N53F, F96D, N97D, N98L
notes: Cycle 3, lineage SR-AB23
B3: SR-AB38 (antibody, IgG1, V domains shown)
VH: B1 VH
VL: B1 VL with N28S, N53F, Q54I, F96D, N97D, N98L
notes: Cycle 3, lineage SR-AB22
B4: SR-AB44 (antibody, IgG1, V domains shown)
VH: B1 VH with V98R
VL: B1 VL with S26H, N31D, Q54V, F96S, N97D, G100L
notes: Cycle 3, lineage SR-AB23
B5: SR-AB34 (antibody, IgG1, V domains shown)
VH: B1 VH
VL: B1 VL with F96Y, N97D, N98A
notes: Cycle 3, lineage SR-AB22
B6: SR-AB41 (antibody, IgG1, V domains shown)
VH: B1 VH with V98R
VL: B1 VL with F96Y, N97D, G100A
notes: Cycle 3, lineage SR-AB23
B7: SR-AB42 (antibody, IgG1, V domains shown)
VH: B1 VH with V98R
VL: B1 VL with F96Y, N97D, N98T
notes: Cycle 3, lineage SR-AB23
B8: SR-AB46-HuFab (Fab, V domains shown)
VH: B1 VH with L57G, V98R, Y110S
VL: B1 VL with N31Y, Q54V, F96S, N97D, G100R
notes: Human Fab; also called SR-AB46 Fab
B9: SR-AB56-HuFab (Fab, V domains shown)
VH: B1 VH with L57G, V98L, Y110S
VL: B1 VL with N31Y, Q54V, F96Y, N97D, N98T
notes: Human Fab; also called SR-Ab56 Fab
B10: SR-AB57-HuFab (Fab, V domains shown)
VH: B1 VH with L57G, V98L, Y110S
VL: B1 VL with N31Y, Q54V, S93G, F96W, N97D, N98T
notes: Human Fab; also called SR-AB57 Fab
B11: SR-AB60-HuFab (Fab, V domains shown)
VH: B1 VH with L57G, V98L, Y110T
VL: B1 VL with N31Y, Q54V, F96Y, N97D, N98T
notes: Human Fab; also called SR-AB60 Fab
B12: SR-AB52-HuFab (Fab, V domains shown)
VH: B1 VH with L57G, V98R, Y110T
VL: B1 VL with N31Y, Q54V, F96Y, N97D, N98T
notes: Human Fab; also called SR-AB52 Fab
B13: SR-AB53-HuFab (Fab, V domains shown)
VH: B1 VH with L57G, V98R, Y110T
VL: B1 VL with N31Y, Q54V, S93G, F96W, N97D, N98T
notes: Human Fab; also called SR-AB53 Fab
B14: SR-AB48-HuFab (Fab, V domains shown)
VH: B1 VH with L57G, V98R, Y110S
VL: B1 VL with N31Y, Q54V, F96Y, N97D, N98T
notes: Human Fab; also called SR-AB48 Fab
B15: SR-AB51-HuFab (Fab, V domains shown)
VH: B1 VH with L57G, V98R, Y110T
VL: B1 VL with N31Y, Q54V, F96Y, N97D, G100A
notes: Human Fab; also called SR-AB51 Fab
B16: SR-AB50-HuFab (Fab, V domains shown)
VH: B1 VH with L57G, V98R, Y110T
VL: B1 VL with N31Y, Q54V, F96S, N97D, G100R
notes: Human Fab; also called SR-AB50 Fab
B17: SR-AB58-HuFab (Fab, V domains shown)
VH: B1 VH with L57G, V98L, Y110T
VL: B1 VL with N31Y, Q54V, F96S, N97D, G100R
notes: Human Fab; also called SR-AB58 Fab
B18: SR-AB54-HuFab (Fab, V domains shown)
VH: B1 VH with L57G, V98L, Y110S
VL: B1 VL with N31Y, Q54V, F96S, N97D, G100R
notes: Human Fab; also called SR-AB54 Fab
B19: SR-AB59-HuFab (Fab, V domains shown)
VH: B1 VH with L57G, V98L, Y110T
VL: B1 VL with N31Y, Q54V, F96Y, N97D, G100A
notes: Human Fab; also called SR-AB59 Fab
B20: SR-AB55-HuFab (Fab, V domains shown)
VH: B1 VH with L57G, V98L, Y110S
VL: B1 VL with N31Y, Q54V, F96Y, N97D, G100A
notes: Human Fab; also called SR-AB55 Fab
B21: SR-AB61-HuFab (Fab, V domains shown)
VH: B1 VH with L57G, V98L, Y110T
VL: B1 VL with N31Y, Q54V, S93G, F96W, N97D, N98T
notes: Human Fab; also called SR-AB61 Fab

The binders below were run against T1, human GARP-proTGFβ1 complex (human, UniProt Q14392 18-627; P01137 30-390, limits assumed) (assay: Octet BLI, IgG captured).
T1 construct: Exemplary entries; also called Hu GARP-proTGFβ1; huGARP proTGFb1
Description: (§1) Binding affinities of the optimized antibodies were measured by Octet against human LTBP1-proTGFβ1, human LTBP3-proTGFβ1, mouse LTBP1-proTGFβ1, mouse LTBP3-proTGFβ1, and GARP-proTGFβ1 complexes, essentially as described in Example 6. […] The antigens were allowed to associate for 3 minutes followed by a 5-minute dissociation. Kinetics buffer (ForteBio®) was used throughout the experiment, and KD was determined using a 1:1 fitting model for each antibody antigen pair.

T1 sequence (Q14392 18-627 limits assumed, chain 1 of 2): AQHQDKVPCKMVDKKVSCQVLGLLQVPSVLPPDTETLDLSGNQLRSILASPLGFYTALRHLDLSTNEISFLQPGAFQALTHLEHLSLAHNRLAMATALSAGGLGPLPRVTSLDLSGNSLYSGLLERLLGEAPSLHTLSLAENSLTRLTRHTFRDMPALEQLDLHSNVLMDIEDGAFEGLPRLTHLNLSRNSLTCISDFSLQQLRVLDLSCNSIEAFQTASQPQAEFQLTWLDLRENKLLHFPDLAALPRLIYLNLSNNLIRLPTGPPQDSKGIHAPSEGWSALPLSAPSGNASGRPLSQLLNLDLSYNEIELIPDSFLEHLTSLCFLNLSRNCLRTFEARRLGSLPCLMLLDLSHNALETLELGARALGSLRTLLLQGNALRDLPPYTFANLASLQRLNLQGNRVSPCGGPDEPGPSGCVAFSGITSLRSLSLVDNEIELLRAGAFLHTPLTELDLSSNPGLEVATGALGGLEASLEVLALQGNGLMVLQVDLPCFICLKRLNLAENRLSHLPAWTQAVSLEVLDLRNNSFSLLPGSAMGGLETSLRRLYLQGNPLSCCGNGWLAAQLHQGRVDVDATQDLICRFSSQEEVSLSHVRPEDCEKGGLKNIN
T1 sequence (P01137 30-390 limits assumed, chain 2 of 2): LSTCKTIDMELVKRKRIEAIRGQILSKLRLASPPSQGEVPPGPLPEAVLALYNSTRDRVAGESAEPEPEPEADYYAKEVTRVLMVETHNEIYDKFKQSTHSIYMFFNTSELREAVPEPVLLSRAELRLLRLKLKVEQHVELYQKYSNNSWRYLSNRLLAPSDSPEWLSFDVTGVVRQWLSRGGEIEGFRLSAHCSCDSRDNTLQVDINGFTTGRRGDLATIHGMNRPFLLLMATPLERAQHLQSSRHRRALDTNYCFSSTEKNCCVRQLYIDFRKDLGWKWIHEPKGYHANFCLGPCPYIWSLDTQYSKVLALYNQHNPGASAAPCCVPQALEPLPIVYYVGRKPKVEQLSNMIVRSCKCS

| Binder | Kd |
| --- | --- |
| B1 | 11.2 nM |
| B2 | 195 nM |
| B3 | 8.42 nM |
| B4 | 212 nM |
| B5 | 73.5 nM |
| B6 | 764 nM |

The binders below were run against T2, human LTBP3-proTGFβ1 complex (human, UniProt Q9NS15 44-1303; P01137 30-390, limits assumed) (assay: Octet BLI, IgG captured).
T2 construct: Exemplary entries; also called Hu LTBP3-proTGFβ1; huLTBP3 proTGFb1
Description: as §1

| Binder | Kd | koff | kon |
| --- | --- | --- | --- |
| B1 | 0.221 nM | 6.81e-05 s⁻¹ | 308000 M⁻¹ s⁻¹ |
| B2 | 0.122 nM | 6e-05 s⁻¹ | 491000 M⁻¹ s⁻¹ |
| B7 | 0.259 nM | 6e-05 s⁻¹ | 232000 M⁻¹ s⁻¹ |
| B3 | 0.145 nM | 7.26e-05 s⁻¹ | 502000 M⁻¹ s⁻¹ |
| B4 | 0.146 nM | 6e-05 s⁻¹ | 410000 M⁻¹ s⁻¹ |
| B5 | 0.179 nM | 6.68e-05 s⁻¹ | 372000 M⁻¹ s⁻¹ |
| B6 | 0.235 nM | 6e-05 s⁻¹ | 255000 M⁻¹ s⁻¹ |

The binders below were run against T3, mouse LTBP3-proTGFβ1 complex (mouse, UniProt Q61810 41-1245; P04202 30-390, limits assumed) (assay: Octet BLI, IgG captured).
T3 construct: Exemplary entries; also called Mo LTBP3-proTGFβ1; Murine LTBP3 proTGFb1
Description: as §1

T3 sequence (Q61810 other isoform, or with tags, fused parts or gaps limits assumed, chain 1 of 2): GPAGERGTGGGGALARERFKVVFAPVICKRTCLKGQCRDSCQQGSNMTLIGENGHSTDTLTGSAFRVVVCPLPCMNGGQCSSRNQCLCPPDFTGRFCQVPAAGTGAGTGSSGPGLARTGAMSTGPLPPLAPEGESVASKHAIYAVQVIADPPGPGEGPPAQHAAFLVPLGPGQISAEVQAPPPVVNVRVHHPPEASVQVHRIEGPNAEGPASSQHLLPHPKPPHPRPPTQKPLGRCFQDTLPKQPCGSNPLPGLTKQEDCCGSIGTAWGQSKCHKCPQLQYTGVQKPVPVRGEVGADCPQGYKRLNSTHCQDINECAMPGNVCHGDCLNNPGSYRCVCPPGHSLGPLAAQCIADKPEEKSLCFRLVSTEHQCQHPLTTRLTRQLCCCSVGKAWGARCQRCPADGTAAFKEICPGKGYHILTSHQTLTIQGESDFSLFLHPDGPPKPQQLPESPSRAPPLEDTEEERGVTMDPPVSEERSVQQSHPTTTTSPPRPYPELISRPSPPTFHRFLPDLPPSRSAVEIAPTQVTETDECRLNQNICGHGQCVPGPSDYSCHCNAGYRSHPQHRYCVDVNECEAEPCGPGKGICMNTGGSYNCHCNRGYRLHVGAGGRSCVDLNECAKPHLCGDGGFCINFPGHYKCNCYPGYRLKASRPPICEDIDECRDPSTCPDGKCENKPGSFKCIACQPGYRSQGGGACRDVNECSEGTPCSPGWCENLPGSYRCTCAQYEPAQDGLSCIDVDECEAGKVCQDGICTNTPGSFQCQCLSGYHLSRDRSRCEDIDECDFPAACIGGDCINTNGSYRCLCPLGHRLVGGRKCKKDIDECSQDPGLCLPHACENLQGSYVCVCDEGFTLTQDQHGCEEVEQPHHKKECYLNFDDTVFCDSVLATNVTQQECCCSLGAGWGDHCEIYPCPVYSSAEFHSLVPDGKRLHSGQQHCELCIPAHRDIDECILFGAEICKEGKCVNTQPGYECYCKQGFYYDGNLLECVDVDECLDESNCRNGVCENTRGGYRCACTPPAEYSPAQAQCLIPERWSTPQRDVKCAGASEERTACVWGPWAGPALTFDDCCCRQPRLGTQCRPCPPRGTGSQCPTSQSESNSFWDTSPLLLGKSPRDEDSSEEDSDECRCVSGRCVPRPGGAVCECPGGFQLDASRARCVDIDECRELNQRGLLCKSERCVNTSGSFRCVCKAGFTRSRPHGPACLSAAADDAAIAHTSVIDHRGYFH
T3 sequence (P04202 30-390 limits assumed, chain 2 of 2): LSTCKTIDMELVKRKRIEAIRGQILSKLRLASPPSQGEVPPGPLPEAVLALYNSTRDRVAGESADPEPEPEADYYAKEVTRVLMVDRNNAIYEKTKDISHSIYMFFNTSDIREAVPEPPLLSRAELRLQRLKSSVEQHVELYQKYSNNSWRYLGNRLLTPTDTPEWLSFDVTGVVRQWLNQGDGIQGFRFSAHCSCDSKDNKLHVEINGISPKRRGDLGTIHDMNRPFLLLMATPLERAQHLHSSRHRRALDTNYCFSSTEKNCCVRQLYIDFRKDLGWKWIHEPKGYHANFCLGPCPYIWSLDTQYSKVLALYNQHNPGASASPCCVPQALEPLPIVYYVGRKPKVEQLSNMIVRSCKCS

| Binder | Kd |
| --- | --- |
| B1 | 0.589 nM |
| B2 | 0.269 nM |
| B7 | 1.05 nM |
| B3 | 0.331 nM |
| B4 | 0.407 nM |
| B5 | 0.45 nM |
| B6 | 0.717 nM |

The binders below were run against T4, mouse LTBP1-proTGFβ1 complex (mouse, UniProt Q8CG19 339-1712; P04202 30-390) (assay: Octet BLI, IgG captured).
T4 construct: Exemplary entries; In the cell assays expressed from mouse LTBP1S and mouse proTGFb1 plasmids in LN229 cells; also called Mo LTBP1-proTGFβ1; MuLTBP1-ProTGFb1
Description: as §1

| Binder | Kd |
| --- | --- |
| B1 | 0.682 nM |
| B2 | 0.193 nM |
| B7 | 0.359 nM |
| B3 | 0.391 nM |
| B4 | 0.21 nM |
| B5 | 0.417 nM |
| B6 | 0.404 nM |

The binders below were run against T5, human LTBP1-proTGFβ1 complex (human, UniProt Q14766 347-1721; P01137 30-390) (assay: Octet BLI, IgG captured).
T5 construct: Large latent complex: one presenting molecule disulfide-linked to a proTGFβ1 dimer; also called Hu LTBP1-proTGFβ1; huLTBP1 proTGFβ1
Description: as §1

T5 sequence (Q14766 347-1721 limits assumed, chain 1 of 2): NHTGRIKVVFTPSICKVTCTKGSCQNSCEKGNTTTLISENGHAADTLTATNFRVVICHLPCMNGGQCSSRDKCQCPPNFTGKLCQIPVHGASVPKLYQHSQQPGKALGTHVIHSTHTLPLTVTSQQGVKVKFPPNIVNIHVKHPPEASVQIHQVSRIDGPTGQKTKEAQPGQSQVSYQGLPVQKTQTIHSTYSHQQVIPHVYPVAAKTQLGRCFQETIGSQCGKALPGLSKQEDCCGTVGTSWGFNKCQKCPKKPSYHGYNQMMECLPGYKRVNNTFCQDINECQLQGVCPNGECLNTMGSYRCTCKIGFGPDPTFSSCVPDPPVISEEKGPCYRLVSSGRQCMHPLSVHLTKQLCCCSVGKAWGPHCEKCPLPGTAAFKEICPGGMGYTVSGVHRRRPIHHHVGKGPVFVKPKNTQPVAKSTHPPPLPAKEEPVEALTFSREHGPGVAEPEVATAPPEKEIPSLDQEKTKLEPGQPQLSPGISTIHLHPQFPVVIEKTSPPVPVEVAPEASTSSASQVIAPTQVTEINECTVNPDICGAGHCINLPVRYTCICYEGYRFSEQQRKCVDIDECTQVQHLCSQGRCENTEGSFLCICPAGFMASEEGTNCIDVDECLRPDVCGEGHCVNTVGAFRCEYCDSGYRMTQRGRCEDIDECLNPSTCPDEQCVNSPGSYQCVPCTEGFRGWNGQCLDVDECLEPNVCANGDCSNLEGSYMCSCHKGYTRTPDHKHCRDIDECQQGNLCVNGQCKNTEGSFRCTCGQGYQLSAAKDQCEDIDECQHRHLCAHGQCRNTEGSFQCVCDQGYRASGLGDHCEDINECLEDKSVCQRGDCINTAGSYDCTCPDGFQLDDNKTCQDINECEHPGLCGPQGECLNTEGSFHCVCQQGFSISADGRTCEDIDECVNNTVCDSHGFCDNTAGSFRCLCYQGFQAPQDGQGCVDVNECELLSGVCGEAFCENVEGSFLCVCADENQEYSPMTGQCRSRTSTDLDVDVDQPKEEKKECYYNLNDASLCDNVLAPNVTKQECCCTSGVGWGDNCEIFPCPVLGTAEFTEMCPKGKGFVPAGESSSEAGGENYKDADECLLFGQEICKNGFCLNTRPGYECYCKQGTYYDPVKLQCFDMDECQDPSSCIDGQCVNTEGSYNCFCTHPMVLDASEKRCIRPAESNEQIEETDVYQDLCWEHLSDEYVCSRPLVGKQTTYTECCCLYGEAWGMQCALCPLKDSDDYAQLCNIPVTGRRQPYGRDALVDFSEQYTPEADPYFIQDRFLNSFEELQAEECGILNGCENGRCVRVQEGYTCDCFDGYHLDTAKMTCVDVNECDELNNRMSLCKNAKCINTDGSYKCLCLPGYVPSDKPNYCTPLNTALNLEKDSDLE
T5 sequence (P01137 30-390 limits assumed, chain 2 of 2): as the sequence (P01137 30-390 limits assumed, chain 2 of 2) above

| Binder | Kd | koff | kon |
| --- | --- | --- | --- |
| B1 | 0.412 nM | 9.89e-05 s⁻¹ | 240000 M⁻¹ s⁻¹ |
| B2 | 0.193 nM | 6e-05 s⁻¹ | 310000 M⁻¹ s⁻¹ |
| B7 | 0.389 nM | 6e-05 s⁻¹ | 154000 M⁻¹ s⁻¹ |
| B3 | 0.357 nM | 0.000117 s⁻¹ | 327000 M⁻¹ s⁻¹ |
| B4 | 0.214 nM | 6e-05 s⁻¹ | 280000 M⁻¹ s⁻¹ |
| B5 | 0.231 nM | 6e-05 s⁻¹ | 259000 M⁻¹ s⁻¹ |
| B6 | 0.296 nM | 6e-05 s⁻¹ | 203000 M⁻¹ s⁻¹ |

The binders below were run against T1, human GARP-proTGFβ1 complex (assay: Octet BLI, Table 10 (repeats Table 9)).
Description: as §1
Table 9 presents the binding profile and affinity data for the indicated LTBP complex-specific antibodies (IgG1-agly) identified from the light chain optimization cycle 3, determined by Octet.

| Binder | Kd |
| --- | --- |
| B1 | 11.2 nM |
| B2 | 195 nM |
| B3 | 8.42 nM |
| B4 | 212 nM |
| B5 | 73.5 nM |
| B6 | 764 nM |

The binders below were run against T6, LTBP-proTGFβ1: transfected human proTGFβ1 presented by endogenous LTBP1/3 of LN229 cells (human) (assay: cell-based or functional assay).
T6 sequence (P01137 30-390): as the sequence (P01137 30-390 limits assumed, chain 2 of 2) above

| Binder | IC50, endogenous hLTBP assay (CAGA12 luciferase) |
| --- | --- |
| B2 | 2.25 nM |
| B7 | 1.43 nM |
| B4 | 1.51 nM |
| B6 | 1.54 nM |

What follows are binders tested against T4, mouse LTBP1-proTGFβ1 complex (assay: cell-based or functional assay).

| Binder | IC50, mLTBP1 assay (CAGA12 luciferase) |
| --- | --- |
| B2 | 0.264 nM |
| B7 | 0.271 nM |
| B4 | 0.3 nM |
| B6 | 0.409 nM |

Biological target: T6, LTBP-proTGFβ1: transfected human …
Assay: cell-based or functional assay
Remark: another data set of the same source

| Binder | IC50, endogenous hLTBP assay (CAGA12 luciferase) |
| --- | --- |
| B1 | 1.26 nM and 1.56 nM |
| B5 | 0.909 nM |

Biological target: T4, mouse LTBP1-proTGFβ1 complex
Assay: cell-based or functional assay
Remark: another data set of the same source

| Binder | IC50, mLTBP1 assay (CAGA12 luciferase) |
| --- | --- |
| B1 | 0.431 nM |
| B5 | 0.423 nM |

What follows are binders tested against T5, human LTBP1-proTGFβ1 complex (assay: SPR Biacore 8K, Fab over captured antigen).
Description: A Biacore 8K system was employed to determine the monovalent binding affinity and the kinetic parameters for antigen binding of test antibodies. Association and dissociation kinetics of Fab fragments SR-AB42-HuFab, SR-AB63-HuFab and SR-AB43-HuFab to antigen complexes were measured, and resulting ka, kd and KD are provided below. Briefly, the binding kinetics were evaluated by surface plasmon resonance using Biacore 8K (GE Healthcare). Biotinylated capture antigens were immobilized to the chip (10 nM, ˜200 RU loading). A Biotin CAPture sensor chip was used to capture the biotinylated antigens. […] 0 nM was used as a reference. […] 0 nM was used as a reference. Multi-cycle kinetics was employed where each analyte concentration was injected in a separate cycle and the sensor chip surface was regenerated after each cycle. A11 the assays were carried out in freshly prepared 1× HBS-EP+ buffer (10 mM HEPES, 150 mM NaCl, 3 mM EDTA, 0.05% Tween20, pH 7.4). Data were fit globally to a 1:1 binding model to obtain the kinetic parameters. The sensorgram for 0 nM analyte concentration was used as reference.

| Binder | Kd | koff | kon |
| --- | --- | --- | --- |
| B8 | 0.0444 nM | 0.00011 s⁻¹ | 2.47e+06 M⁻¹ s⁻¹ |
| B9 | 0.0489 nM | 0.000126 s⁻¹ | 2.58e+06 M⁻¹ s⁻¹ |
| B10 | 0.133 nM | 0.000181 s⁻¹ | 1.35e+06 M⁻¹ s⁻¹ |
| B11 | 0.051 nM | 0.00012 s⁻¹ | 2.35e+06 M⁻¹ s⁻¹ |
| B12 | 0.0396 nM | 9.91e-05 s⁻¹ | 2.5e+06 M⁻¹ s⁻¹ |
| B13 | 0.0707 nM | 0.000128 s⁻¹ | 1.82e+06 M⁻¹ s⁻¹ |
| B14 | 0.0593 nM | 0.000104 s⁻¹ | 1.76e+06 M⁻¹ s⁻¹ |
| B15 | 0.0589 nM | 0.00015 s⁻¹ | 2.55e+06 M⁻¹ s⁻¹ |
| B16 | 0.055 nM | 0.000182 s⁻¹ | 3.31e+06 M⁻¹ s⁻¹ |
| B17 | 0.0521 nM | 0.000162 s⁻¹ | 3.11e+06 M⁻¹ s⁻¹ |
| B18 | 0.0491 nM | 8.83e-05 s⁻¹ | 1.8e+06 M⁻¹ s⁻¹ |
| B19 | 0.0509 nM | 0.00013 s⁻¹ | 2.55e+06 M⁻¹ s⁻¹ |
| B20 | 0.131 nM | 0.000113 s⁻¹ | 862000 M⁻¹ s⁻¹ |
| B21 | 0.132 nM | 0.000155 s⁻¹ | 1.17e+06 M⁻¹ s⁻¹ |
